Experimental data published in patent US8658382B2, “Proteins with pteridine glycosyltransferase activity and analysis method using the same” (Inje University Industry-Academic Cooperation Foundation, priority 2008, dated 2014).
Entries after “also recorded” stand apart in the source; their conditions may differ.

B1: CY-7: recombinant pteridine glycosyltransferase from Spirulina platensis CY-7, amino acid SEQ ID NO 2 (protein)
chain: MTPTSWKLLFISTPVGPLGSGLGGGVELTLLNMAKALKSRGHDITVVAPSGSVLESLSIIEIPGELQPIAQNQDRDSLITIPENSVLGNMWEYGRQVQTNYHAIVNFAFDWLPFYLTPFFDTPIAHCVSMASLISALDQIVGQVMKQFPGTVGFHSHTQAATFGSDLDYACLGSGLEMERYQFCEQPHQQLAWMGRISPEKGLEDAIAAADKTGIPLEIFGKIQDDQYWQNILNTYPNAPLNYRGFLNTDELQQGLRQCRGLLMTHRWVEAFGNVAIEALACGVPVISYRRGGPAEIVRDGETGWLVEPDSVTGLVDAIAKFEQIDRRQCRAVAEKEYSLAALGDRLEKWLSDVTRLKN
modifications: Spirulina platensis CY-7
B2: BGluT: recombinant protein from a Synechococcus gene with pteridine glucosyltransferase activity (UDP-glucose:tetrahydrobiopterin glucosyltransferase) (protein)
chain: MTAHRFLFVSTPVGPLGSGRGGGVELTLPNLAKALTQRGHQVSVLAPAGSVLPDLPLETVPGTWQSTAQSHGRATPAEIPAESVLARLWDRAHQQQADFDLILNFAYDWLPLYLTPFFKTPVAHLISMGSLSEVMDQAIATSLDRYPGSIAVHSLAQAATFPFGDRCLCIGNALDLAAYGFNPEPEPVLGWVGRIAPEKGLEDAIQAAQQAGLPLRVWGALTEPDYWQRLQQQFGDRAVSYQGFVSTDELQRGLGRCQGLLMTPKWVEAFGNVAIEALACGLPVIAYARGGPLEIIEQGKSGWLVEPDQQAALVNAIGQLSSLDRAYCRAQAEARFSLAAMGQRLEAWLLPLLSRARGF
modifications: Synechococcus PCC7942
B3: CY-49: recombinant pteridine glycosyltransferase from Spirulina maxima CY-49, amino acid SEQ ID NO 3, transfers xylose (protein)
chain: MPQKSWKLLFISTPVGPLGSGLGGGVELTLLNMAKALHSRGHDITVVAPSGSVLESLSVIEISGKLQPIAQNQDRDSLITIPENSVLGNMWEYGRQVQTNYHAIVNFAFDWLPFYLTPFFPTPIAHWVSMGSLISALDQIVVEVMKQFPGTVGFYSHTQAATFGSDLGYACLGSGLEMDRYQFCDQPHQQLAWMGRISPEKGLEDAIAAADKTGIPLAIFGKIQDEQYWQNILNTYPNAPLNYRGFLNTDELQQGLRECRGLLMTHRWVEAFGNVAIEALACGVPVISYRRGGPAEIVRDGETGWLVEPDSVTGLVDAIAKLEQIDRRQCRALAEKEYSLVALGDRLETWLSDVIALKN
modifications: Spirulina maxima CY-49

Tests used:
[1] = Pteridine glycosyltransferase activity with human urine; format: biochemical; conditions: 1 μg protein, 10 μl human urine in 100 μl, FIG. 12
Method: Also, 1 μg of each protein was added to 100 μl of reaction solution containing 10 μl of human urine instead of tetrahydrobiopterin. The reaction mixture was incubated at for 20 minutes. For CY-49, 500 μM UDP-xylose was added as a substrate; and for other enzymes, UDP-glucose was added. Other reaction conditions were the same as in the above.

[2] = Characterization of enzyme activity by amount of protein, compared with BGluT; format: biochemical; conditions: production of tetrahydrobiopterin-glycoside by amount of protein (0.05-1.0 μg), FIG. 11
Method: The enzymatic activities for the isolated proteins were compared with that of BGluT. First, production profiles of tetrahydrobiopterin(BH4)-glucoside produced according to amounts of the proteins was compared with that of BGluT. The enzyme activities were represented as a percentage to all converted amounts. The reaction condition was as follows. That is, reactions were performed in a final volume of 100 μl, which consisted of 50 mM Tris-HCl (pH 7.5), 10 mM MgCl2, 0.05% ascorbic acid, 1 μM tetrahydrobiopterin, 500 μM UDP-glucose or UDP-xylose, and a protein (0.05-1.0 μg). The reaction mixture was incubated at 37 for 20 minutes. 30 μl of acidic iodine solution (2%/1% KI/I2 in 1 M HCl) was added thereto in darkness for 1 hour at room temperature, so as to oxidize the reaction mixture. After centrifugation, the resulting supernatant was mixed with 10 μl of 5% ascorbic acid and neutralized with 30 μl of 1N NaOH for injection to HPLC.

[3] = Analysis of protein activity of the recombinant proteins with UDP-glycosides; format: biochemical; conditions: for pteridine glycosyltransferase activity (sugar bound to tetrahydrobiopterin): 1 μM tetrahydrobiopterin, 500 μM UDP-glycoside, HPLC, FIG. 10
Method: The protein activity was assayed in 100 μl of reaction mixture having the following composition: 50 mM Tris-HCl (pH 7.5), 10 mM MgCl2, 0.2% ascorbic acid, 1 μM tetrahydrobiopterin, 500 μM UDP-glycoside (one of UDP-glucose, UDP-galactose, UDP-xylose, UDP-glucuronic acid, UDP-galacturonic acid, UDP-N-acetylglucosamine, and UDP-N-acetylgalactosamine) and an appropriate amount of the purified recombinant protein. The reaction was performed at 37 for 10-60 minutes depending on an amount of protein. 30 μl of acidic iodine solution (2%/1% KI/I2 in 1 M HCl) was added to the reaction mixture and allowed in darkness for 1 hour for oxidation thereof. The mixture was centrifuged to recover the supernatant, which was then mixed with 10 μl of 5% ascorbic acid. 30 μl of 1N NaOH was added to the resulting mixture for neutralization and then HPLC analysis was carried out.
HPLC system consisted of Gilson 321 pump, Gilson 234 autoinjector, a fluorescence detector (Schimadzu RF-10AXL), and a system software (Gilson Unipoint version 5.11). Chromatography was performed on a guard column (10 μm, 4.3 mm×1 cm) and an Inertsil ODS-3 (5 μm, 150×2.3 mm, GL Science, Japan) equilibrated with 10 mM potassium phosphate buffer (pH 6.0) at room temperature. Pteridines were eluted isocratically at a flow rate of 1.2 ml/min and monitored at 350/450 nm (excitation/emission). Pteridine peaks were identified and quantified by using authentic pteridines, which were purchased from Dr. B. Schirck's Lab (Jona, Switzerland). Biopterin-glucoside was isolated from Synechococcus sp. PCC 7942 (Y. K. Choi, Y. K. Hwang, Y. H. Kang, Y. S. Park, Chemical structure of 1-O-(L-erythro-biopterin-2′-yl)-alpha-glucose isolated from a cyanobacterium Synechococcus sp. PCC 7942, Pteridines, 12 (2001) 121-125).

[4] = Storage stability of purified recombinant BGluT; format: physicochemical; conditions: in 20 mM Tris-HCl (pH 7.5), 30% (v/v) glycerol, aliquots at −70° C.
Source text: According to the present inventor's article (Y. K. Choi, Y. K. Hwang, Y. S. Park, Molecular cloning and disruption of a novel gene encoding UDP-glucose:tetrahydrobiopterin alpha-glucosyltransferase gene in Synechococcus sp. PCC 7942. FEBS Lett. 502 (2001) 73-78), the BGluT gene cloned in pET-28a was overexpressed in Escherichia coli strain BL21(DE3). The recombinant BGluT was homogeneously purified with Ni-NTA column (Qiagen). Briefly, the transformed E. coli was induced to overexpress the protein with 0.3 mM isopropyl thiogalactoside (IPTG). After being incubated at 37° C. for 3 hours, the harvested cells were washed with lysis buffer (50 mM sodium phosphate (pH 8.0), 300 mM NaCl, 10 mM imidazole), resuspended in the same buffer, and disrupted by sonication. The crude extract obtained after centrifugation was applied to a column of Ni-NTA gel (Qiagen) and purified according to the product manual. The recombinant BGluT protein was eluted with 250 mM imidazole in the lysis buffer. The purified protein was dialyzed against 20 mM Tris-HCl (pH 7.5), mixed with glycerol to a concentration of 30% (v/v), and stored in aliquots at −70° C. until use. The protein was stable up to 4 months. Protein concentration was determined using Bradford reagent.

[5] = BGluT-catalysed glucosylation of tetrahydrobiopterin (establishing reaction conditions); format: biochemical
Method: Unless otherwise specified, the following standard reaction conditions were used for the determination of tetrahydrobiopterin and its oxidized forms. Reactions were carried out in a final volume of 100 μl, which consisted of 50 mM Tris-HCl (pH 7.5), 10 mM MgCl2, 0.05% ascorbic acid, 500 μM UDP-glucose, 1 μg of BGluT, and an aliquot of pteridines or tissue extracts. The reaction mixture was incubated for 20 minutes at 37° C. and then mixed with 30 μl of acidic iodine solution (2% KIM % I2 in 1 N HCl). After 1 hour in the dark at room temperature, the oxidized mixture was centrifuged. […]
The HPLC system consisted of Gilson 321 pump, Gilson 234 autoinjector, a fluorescence detector (Schimadzu RF-10AXL), and a system software (Gilson Unipoint version 5.11). […] Pteridines were eluted isocratically at a flow rate of 1.2 ml/min and monitored at 350/450 nm (excitation/emission). Pteridine peaks were identified and quantified using authentic pteridines, which were purchased from Dr. B. Schirck's Lab (Jona, Switzerland). […]
The results of FIG. 1 illustrate that a selective and quantitative analysis of tetrahydrobiopterin is possible using BGluT. In order to validate the possibility quantitatively, various studies were carried out to establish a standard reaction condition suitable for analysis of biological samples. […]

| Molecule | HPLC chromatogram of the reaction mixture with human urine [1] | activity compared with BGluT [2] | Substrate for glucosylation [3] | pteridine glycosyltransferase activity (sugar bound to tetrahydrobiopterin) [3] | time the protein was stable [4] | amount of BGluT above which the product is not increased any more ([5]; 100 μl reaction mixture, 1 μM tetrahydrobiopterin, 10 minutes, FIG. 2) | conversion of tetrahydrobiopterin to its glucosylated product ([5]; even in the presence of dihydrobiopterin, FIG. 1) |
| --- | --- | --- | --- | --- | --- | --- | --- |
| B1 | very similar to that of BGluT | higher activities than BGluT; also recorded: more excellent activity than BGluT | Glucose | an activity for binding glucose to tetrahydrobiopterin | – | – | – |
| B2 | – | – | – | – | up to 4 months | more than 1 μg | specifically convert only all of tetrahydrobiopterin to its glucosylated product |
| B3 | showed the peak of biopterin-xylose, instead of biopterin-glucose | higher activities than BGluT | Xylose | an activity for binding xylose to tetrahydrobiopterin | – | – | – |
